Laboratory results from patent US11311610B2, “Immune-modulating agents and uses therefor” (UNIVERSITY OF TECHNOLOGY SYDNEY, priority 2010, dated 2022).

B1: FhHDM-1: 90-residue polypeptide from F. hepatica, Helminth Defense Molecule-1 (SEQ ID NO:24); recombinant form minus N-terminal signal peptide, expressed in E. coli (protein, listed as Fasciola hepatica)
chain: MRFIVLLCLAEVLLAAYVEARPSEESREKLRESGRKMVKALRDAVTKAYEKARDRAMAYLAKDNLGEKITEVITILLNRLTDRLEKYAGN

Tests used:
[1] = test system: immune cell invasion of pancreatic islets; assay: Insulitis in NOD mouse model of type 1 diabetes; format: in vivo; settings: NOD mice, 6 injections every second day from 5 weeks, sacrificed at 10 weeks
Text: Non-obese diabetic (NOD) mice (model of Type 1 diabetes) were given 6 injections (on every second day) of proteinaceous compound beginning at 5 weeks of age and animals were sacrificed at 10 weeks of age (i.e. when insulitis develops). Subsequently, formalin-fixed, paraffin-embedded pancreata was stained with haematoxylin and eosin to assess islet inflammation (i.e., insulitis).
Islet insulitis was scored as 0 (healthy islet), 1 (peri-insulitis up to 25% of islet occupied by leukocytes), 2 (leukocytic infiltration from 25% up to 50% of islet mass), 3 (leukocytic infiltration from 50% up to 75% of islet mass) or 4 (less than 25% of islet mass present). Accordingly, the greater the percentage of islets with higher insulitis scores the worse the prognosis for diabetes development would be for that animal.

human monocytes = assay: Activation marker expression on stimulated human monocytes (flow cytometry); format: cell-based; settings: human monocytes stimulated 40 h with 10 μg/mL
[2] = test system: primary human macrophages; assay: Confocal microscopy of macrophages incubated with FhHDM-1; format: cell-based; settings: 10 μg/mL for 2 h
Procedure: FIG. 10 is a photographic representation showing representative immunofluorescent images obtained by confocal microscopy at an original magnification 100× of primary human macrophages (A) and (C) incubated with recombinant FhHDM-1 (10 μg/mL for 2 h). Images (B) and (D) were experimental controls incubated with media only. Cells were stained with mouse anti-His MAb (1/2000), goat-anti-mouse Alexa-488-conjugated secondary antibody (1/1000) (green staining) and DiI plasma membrane stain (red staining). DAPI was used for identification of the cell nucleus (blue staining).

[3] = test system: primary human macrophages; assay: Proteomics analysis of treated macrophages; format: cell-based
Text: FIG. 11 is a diagrammatic representation showing a Venn diagram of soluble proteins identified in primary human macrophages.

NOD mice = assay: Diabetes development in NOD mice (blood glucose); format: in vivo
Procedure: FIG. 13 is a graphical representation showing that FhHDM-1 protects NOD mice from developing diabetes. FhHDM-1 was given to female NOD mice aged 4 weeks. 10 μg of FhHDM-1 was delivered i.p. in PBS on alternate days for a total of 6 doses. Blood glucose readings were taken weekly and mice with two consecutive readings >14 mmol/L were deemed diabetic.
Female NOD mice (n=10) were given recombinant HDM (10 μg in 100 μL sterile PBS) by intraperitoneal (i.p.) injection on alternate days beginning at 4 weeks of age for a total of 6 injections. Control mice were given 100 μL of sterile PBS on the same days. Blood glucose levels were measured once a week, from the age of 13 weeks, using Accu-check Advantage blood glucose strips (Roche). Animals were sacrificed when they became overtly diabetic; as defined by two random blood glucose concentrations above 12 mM. Statistical analysis of the times the animal was sacrificed was performed using survival analysis.

peritoneal macrophages = assay: IL-10 secretion by peritoneal macrophages of treated NOD mice; format: in vivo; settings: 10 μg i.p. x6, 24 h after last injection, compared to untreated mice
Procedure: FhHDM-1 was given to female NOD mice aged 4 weeks. 10 μg of FhHDM-1 was delivered i.p. in PBS on alternate days for a total of 6 doses. 24 h after the last injection, macrophages were isolated from the peritoneal lavage and cultured in RPMI supplemented with FCS for 12 h. IL-10 secreted into the media was measured by ELISA.
Female NOD mice (n=6) were given recombinant HDM (10 μg in 100 μL sterile PBS) by intraperitoneal (i.p.) injection on alternate days beginning at 4 weeks of age for a total of 6 injections. Control mice were given 100 μL of sterile PBS on the same days. 24 h after the last injection mice were sacrificed and peritoneal cells harvested by lavage. Macrophages were isolated from peritoneal lavages based upon their adherent properties, and cultured overnight at 37° C. in RPMI supplemented with FCS. The quantity of IL-10 secreted into the media was measured by ELISA.

[4] = test system: inflammatory response to bacterial lipopolysaccharide; assay: Inflammatory response to LPS in vivo after HDM pre-treatment; settings: BALB/c mice, 1 μg i.p. 2 h before 1 μg LPS, 4 h later
Procedure: Female BALB/c mice were given 1 μg of FhHDM-1 i.p. and 2 h later given 1 μg of E. coli LPS i.p. After another 4 h, mice were sacrificed and serum and peritoneal macrophages assessed for the presence of inflammatory cytokines.
Female BALB/c mice (n=5) were given a single intraperitoneal injection of 1 μg of recombinant HDM two hours prior to an intraperitoneal injection of 1 μg of E. coli lipopolysaccharide. Four hours later, mice were sacrificed and blood and peritoneal cells were harvested. Peritoneal macrophages were isolated from lavage fluid based upon their adherent properties, and cultured overnight at 37° C. in RPMI supplemented with FCS. The quantities of inflammatory cytokines in both sera and culture media from macrophages were measured by ELISA.

RAW macrophages = assay: ATP induced macrophage cell death (LDH release); format: cell-based, murine; settings: 20 μg/mL pre-treatment 1 h, then ATP 5 mM 2 h
Procedure: FIG. 16 is a graphical representation showing that FhHDM-1 P3 prevents ATP induced cell death in RAW macrophages. RAW macrophages were pretreated with either FhHDM-1 (20 μg/mL) or FhHDM-1 p3 (20 μg/mL) for 1 h, then washed and cultured in the presence of ATP (5 mM) for 2 h. Cell death (% cytotoxicity) was quantified according to the amount of LDH released by the cells into culture media.
Raw macrophages were pre-treated with either HDM (20 μg/mL) or FhHDM-1 P3 (20 μg/mL) for 1 h, washed and then cultured in the presence of ATP (5 mM) for 2 h. The culture supernatants were collected and assayed for LDH activity with an LDH release kit. The amount of LDH release by cells treated with ATP only was used to represent 100% cytotoxicity.

[5] = of 237 proteins present in both samples

Molecule | immune cell invasion of pancreatic islets (insulitis) [1] | expression of markers of alternative activation (CD163 and CD206) (human monocytes) | expression of markers of the classical phenotype (CD86 and HLA-DR) (human monocytes) | interaction with the plasma membrane of macrophages [2] | lysosomal proteins of primary macrophages [3] | number of proteins down-regulated following treatment [3, 5] | number of proteins up-regulated following treatment [3, 5] | KEGG pathways in primary human macrophages (Table 5) ([3]; proteomic analysis) | number of proteins uniquely expressed in the treated sample ([3]; versus PBS-treated sample) | further time the level of protection was sustained (NOD mice; after 18 weeks of age) | normoglycaemic mice (NOD mice; female NOD mice, 10 μg i.p. alternate days x6 from 4 weeks, at 18 weeks of age) | IL-10 secreted by peritoneal macrophages (peritoneal macrophages) | IL-12 secreted by peritoneal macrophages [4] | TNFα secreted by peritoneal macrophages [4] | levels of IL-10 in circulation [4] | quantity of TNFα in sera [4] | LDH release induced by ATP (cytotoxicity of ATP) (RAW macrophages)
KARDRAMAYLAKDNLGEKITEVITILLNRL (FhHDM-1 peptide 1 comprising a truncated amphipathic helix contained in FhHDM-1) [FhHDM-1 p1, peptide in which the amphipathic helix is truncated] | no significant activity |  |  |  |  |  |  |  |  |  |  |  |  |  |  |  | 
B1 |  | increased expression | decreased expression | interacts with the plasma membrane | down-regulates | 44 | 42 | down-regulated | 6 | 7 weeks | 80% | significantly more | significantly less | significantly less | significantly reduced | also reduced this did not reach significance | no significant effect
